Data taken from patent US20240261333A1 (published 2024).

T1: YTHDF2 (human, UniProt Q9Y5A9 2-579)
T1 construct: also called NP_057342.2
T1 sequence (looked up): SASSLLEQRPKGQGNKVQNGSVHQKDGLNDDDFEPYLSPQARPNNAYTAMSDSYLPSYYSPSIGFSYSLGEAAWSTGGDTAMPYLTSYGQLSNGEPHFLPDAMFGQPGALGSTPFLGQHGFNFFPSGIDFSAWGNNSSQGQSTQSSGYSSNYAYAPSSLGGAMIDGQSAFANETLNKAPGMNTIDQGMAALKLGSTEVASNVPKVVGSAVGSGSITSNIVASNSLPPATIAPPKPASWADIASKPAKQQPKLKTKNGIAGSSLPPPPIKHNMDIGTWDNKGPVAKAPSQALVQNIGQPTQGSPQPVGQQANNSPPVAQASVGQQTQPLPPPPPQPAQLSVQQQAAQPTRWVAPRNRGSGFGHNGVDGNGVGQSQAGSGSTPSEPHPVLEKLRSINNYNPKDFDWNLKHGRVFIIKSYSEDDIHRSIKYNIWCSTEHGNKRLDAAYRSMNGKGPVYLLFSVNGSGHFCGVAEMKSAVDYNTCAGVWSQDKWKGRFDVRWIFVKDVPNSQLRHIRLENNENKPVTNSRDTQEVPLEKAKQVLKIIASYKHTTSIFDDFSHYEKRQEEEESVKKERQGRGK

T2: SBSN (human, UniProt Q6UWP8 26-590)
T2 construct: also called NP_00159506.1 (+2)
T2 sequence (looked up): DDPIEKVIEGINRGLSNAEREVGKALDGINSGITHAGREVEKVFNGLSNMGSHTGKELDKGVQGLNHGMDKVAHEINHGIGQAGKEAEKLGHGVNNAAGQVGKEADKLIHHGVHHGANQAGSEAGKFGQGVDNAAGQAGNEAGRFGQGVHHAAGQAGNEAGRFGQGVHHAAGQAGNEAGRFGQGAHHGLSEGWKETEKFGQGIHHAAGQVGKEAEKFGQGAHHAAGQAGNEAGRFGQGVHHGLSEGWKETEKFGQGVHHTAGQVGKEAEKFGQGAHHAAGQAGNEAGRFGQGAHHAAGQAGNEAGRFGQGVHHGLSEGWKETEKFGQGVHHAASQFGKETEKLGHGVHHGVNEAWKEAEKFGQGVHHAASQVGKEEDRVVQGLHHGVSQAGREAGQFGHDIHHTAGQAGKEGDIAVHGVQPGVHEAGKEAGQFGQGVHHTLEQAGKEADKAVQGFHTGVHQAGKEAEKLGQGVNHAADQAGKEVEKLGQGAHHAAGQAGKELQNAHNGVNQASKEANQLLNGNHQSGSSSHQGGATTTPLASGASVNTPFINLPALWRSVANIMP

T3: SPARC (human, UniProt P09486 18-303)
T3 construct: also called NP_001296372.1 (+1)
T3 sequence (looked up): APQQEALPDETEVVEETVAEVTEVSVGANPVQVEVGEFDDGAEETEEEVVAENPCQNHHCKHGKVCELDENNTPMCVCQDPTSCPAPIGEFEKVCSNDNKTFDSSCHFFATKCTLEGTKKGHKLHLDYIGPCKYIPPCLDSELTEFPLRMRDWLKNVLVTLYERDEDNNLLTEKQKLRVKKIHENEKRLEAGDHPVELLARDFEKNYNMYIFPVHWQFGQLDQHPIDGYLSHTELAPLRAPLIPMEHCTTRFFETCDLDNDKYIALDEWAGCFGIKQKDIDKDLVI

B1: N-terminal FLAG tagged B3GNT2 (enzyme, human, UniProt Q9NY97 1-397, looked up)
chain: MSVGRRRIKLLGILMMANVFIYFIMEVSKSSSQEKNGKGEVIIPKEKFWKISTPPEAYWNREQEKLNRQYNPILSMLTNQTGEAGRLSNISHLNYCEPDLRVTSVVTGFNNLPDRFKDFLLYLRCRNYSLLIDQPDKCAKKPFLLLAIKSLTPHFARRQAIRESWGQESNAGNQTVVRVFLLGQTPPEDNHPDLSDMLKFESEKHQDILMWNYRDTFFNLSLKEVLFLRWVSTSCPDTEFVFKGDDDVFVNTHHILNYLNSLSKTKAKDLFIGDVIHNAGPHRDKKLKYYIPEVVYSGLYPPYAGGGGFLYSGHLALRLYHITDQVHLYPIDDVYTGMCLQKLGLVPEKHKGFRTFDIEEKNKNNICSYVDLMLVHSRKPQEMIDIWSQLQSAHLKC
notes: FLAG-tagged ORF overexpressed in cells; pulled down from lysate with mouse anti-FLAG; also called N-FLAG B3GNT2; N-term FLAG; not shown: N-terminal FLAG tag
B2: N-terminal FLAG tagged B3GNT2 (enzyme, human, UniProt Q9NY97 1-397, looked up)
chain: B1 chain
notes: FLAG-tagged ORF overexpressed in A375 cells; pulled down from the lysate with mouse anti-FLAG; also called N-FLAG B3GNT2; N-term FLAG; not shown: N-terminal FLAG tag

How the values were obtained:
Experiment in all cases: co-IP with anti-FLAG, N-FLAG B3GNT2, mass spectrometry
YTHDF2 = molecular target: T1, YTHDF2
RPL38 = RPL38 (human, UniProt P63173 1-70)
SYNM = molecular target: T4, SYNM (human, UniProt O15061 1-1565)
T4 construct: also called NP_663780.2

RUVBL2 = molecular target: T5, RUVBL2 (human, UniProt Q9Y230 2-463)
T5 construct: also called NP_006657.1

DDX17 = molecular target: T6, DDX17 (human, UniProt Q92841 1-729, limits assumed)
T6 construct: also called NP_001091974.1

SBSN = molecular target: T2, SBSN
PRRC2C = molecular target: T7, PRRC2C (human, UniProt Q9Y520-4 1-2817, limits assumed)
T7 construct: also called NP_055987.2 (+10)

RPS20 = RPS20 (human, UniProt P60866 2-119)
SPARC = molecular target: T3, SPARC

T7 sequence (Q9Y520 other isoform, or with tags, fused parts or gaps limits assumed): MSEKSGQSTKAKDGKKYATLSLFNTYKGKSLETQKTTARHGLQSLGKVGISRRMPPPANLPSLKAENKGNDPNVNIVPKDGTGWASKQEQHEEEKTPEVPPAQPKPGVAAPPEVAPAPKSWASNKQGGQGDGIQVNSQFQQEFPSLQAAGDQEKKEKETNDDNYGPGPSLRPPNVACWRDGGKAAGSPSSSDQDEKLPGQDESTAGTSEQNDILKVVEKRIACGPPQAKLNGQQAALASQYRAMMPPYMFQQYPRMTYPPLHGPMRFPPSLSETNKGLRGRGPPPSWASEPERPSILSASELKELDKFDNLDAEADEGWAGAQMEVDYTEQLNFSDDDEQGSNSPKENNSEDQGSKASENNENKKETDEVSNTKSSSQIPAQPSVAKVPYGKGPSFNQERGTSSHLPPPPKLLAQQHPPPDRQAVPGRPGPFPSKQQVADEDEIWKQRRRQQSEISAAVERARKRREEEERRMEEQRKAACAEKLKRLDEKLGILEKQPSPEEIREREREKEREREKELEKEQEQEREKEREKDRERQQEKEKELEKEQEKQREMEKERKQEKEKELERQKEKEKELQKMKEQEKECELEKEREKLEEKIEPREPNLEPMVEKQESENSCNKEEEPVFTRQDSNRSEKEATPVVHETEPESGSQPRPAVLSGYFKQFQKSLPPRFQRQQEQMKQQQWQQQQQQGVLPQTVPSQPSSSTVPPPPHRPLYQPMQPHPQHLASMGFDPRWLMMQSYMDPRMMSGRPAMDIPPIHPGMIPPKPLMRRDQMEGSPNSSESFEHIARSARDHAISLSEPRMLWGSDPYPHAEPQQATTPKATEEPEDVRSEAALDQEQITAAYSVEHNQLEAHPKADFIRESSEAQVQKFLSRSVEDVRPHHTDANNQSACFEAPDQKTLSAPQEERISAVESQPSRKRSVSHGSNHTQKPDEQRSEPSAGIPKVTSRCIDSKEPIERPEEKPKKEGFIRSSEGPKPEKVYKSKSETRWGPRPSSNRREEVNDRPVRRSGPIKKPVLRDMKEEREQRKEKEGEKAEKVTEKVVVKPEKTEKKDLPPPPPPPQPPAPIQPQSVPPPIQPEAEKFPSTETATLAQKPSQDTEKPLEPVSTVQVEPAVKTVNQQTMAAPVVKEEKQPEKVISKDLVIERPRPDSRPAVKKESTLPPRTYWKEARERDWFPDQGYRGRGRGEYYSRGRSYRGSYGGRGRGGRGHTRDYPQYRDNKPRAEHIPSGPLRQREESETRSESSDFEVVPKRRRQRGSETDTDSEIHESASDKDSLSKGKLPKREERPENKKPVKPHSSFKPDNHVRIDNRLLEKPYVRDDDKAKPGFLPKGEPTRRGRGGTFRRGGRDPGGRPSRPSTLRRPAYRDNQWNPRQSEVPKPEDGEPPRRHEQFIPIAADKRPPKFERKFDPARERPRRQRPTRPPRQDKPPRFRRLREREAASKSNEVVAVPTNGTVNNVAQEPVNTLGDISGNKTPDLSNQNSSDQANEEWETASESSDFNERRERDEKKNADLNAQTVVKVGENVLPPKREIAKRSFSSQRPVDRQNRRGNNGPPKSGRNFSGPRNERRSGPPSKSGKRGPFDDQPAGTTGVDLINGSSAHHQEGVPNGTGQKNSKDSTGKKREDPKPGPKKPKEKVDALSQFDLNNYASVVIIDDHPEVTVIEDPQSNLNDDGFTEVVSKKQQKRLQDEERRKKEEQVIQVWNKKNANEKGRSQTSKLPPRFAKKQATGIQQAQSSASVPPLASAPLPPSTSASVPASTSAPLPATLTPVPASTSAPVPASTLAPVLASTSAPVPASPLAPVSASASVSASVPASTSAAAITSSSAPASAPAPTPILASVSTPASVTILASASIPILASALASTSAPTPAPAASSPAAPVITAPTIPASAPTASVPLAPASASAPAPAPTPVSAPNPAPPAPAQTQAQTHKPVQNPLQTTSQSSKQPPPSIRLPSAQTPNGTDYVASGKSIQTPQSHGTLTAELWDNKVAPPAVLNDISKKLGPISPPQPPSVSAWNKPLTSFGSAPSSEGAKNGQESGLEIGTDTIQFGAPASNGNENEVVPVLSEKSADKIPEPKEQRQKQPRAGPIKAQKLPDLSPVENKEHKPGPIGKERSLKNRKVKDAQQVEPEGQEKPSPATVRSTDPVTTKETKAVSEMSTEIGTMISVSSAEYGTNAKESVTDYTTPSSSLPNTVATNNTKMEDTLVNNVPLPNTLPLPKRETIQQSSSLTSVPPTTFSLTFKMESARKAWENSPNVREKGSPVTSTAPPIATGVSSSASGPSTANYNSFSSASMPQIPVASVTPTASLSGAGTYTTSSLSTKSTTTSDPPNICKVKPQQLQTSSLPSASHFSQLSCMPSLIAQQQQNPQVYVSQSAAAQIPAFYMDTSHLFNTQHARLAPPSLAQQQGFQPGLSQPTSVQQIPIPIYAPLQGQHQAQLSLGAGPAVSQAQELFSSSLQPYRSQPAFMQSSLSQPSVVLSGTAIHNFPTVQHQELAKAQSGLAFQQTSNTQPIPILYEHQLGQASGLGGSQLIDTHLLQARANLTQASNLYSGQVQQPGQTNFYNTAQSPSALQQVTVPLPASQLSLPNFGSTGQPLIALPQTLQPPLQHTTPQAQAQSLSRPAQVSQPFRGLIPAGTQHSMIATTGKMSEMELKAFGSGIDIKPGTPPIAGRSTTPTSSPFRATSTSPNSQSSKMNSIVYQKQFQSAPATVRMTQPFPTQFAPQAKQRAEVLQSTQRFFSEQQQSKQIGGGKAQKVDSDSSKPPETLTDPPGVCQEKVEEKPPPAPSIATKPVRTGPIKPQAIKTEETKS
T6 sequence (Q92841 whole entry): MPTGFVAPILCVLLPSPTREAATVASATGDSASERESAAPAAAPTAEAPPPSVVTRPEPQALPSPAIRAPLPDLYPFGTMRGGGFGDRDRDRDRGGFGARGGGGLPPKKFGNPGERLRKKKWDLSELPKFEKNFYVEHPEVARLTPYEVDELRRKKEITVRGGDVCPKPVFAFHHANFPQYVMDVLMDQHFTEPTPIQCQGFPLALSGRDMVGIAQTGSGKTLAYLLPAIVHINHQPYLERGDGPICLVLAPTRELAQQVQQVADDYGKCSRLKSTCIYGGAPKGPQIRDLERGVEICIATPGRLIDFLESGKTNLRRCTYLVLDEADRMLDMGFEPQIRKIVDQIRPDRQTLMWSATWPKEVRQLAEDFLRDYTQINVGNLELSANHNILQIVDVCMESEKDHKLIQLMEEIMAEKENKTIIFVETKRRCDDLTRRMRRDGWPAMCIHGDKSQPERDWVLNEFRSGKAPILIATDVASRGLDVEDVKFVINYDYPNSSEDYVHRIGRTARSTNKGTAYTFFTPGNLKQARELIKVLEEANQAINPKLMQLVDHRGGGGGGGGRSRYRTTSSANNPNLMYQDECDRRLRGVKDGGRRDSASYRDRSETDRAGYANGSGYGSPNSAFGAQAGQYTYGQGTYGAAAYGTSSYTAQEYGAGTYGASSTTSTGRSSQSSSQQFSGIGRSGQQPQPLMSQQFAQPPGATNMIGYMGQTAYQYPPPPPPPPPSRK
T4 sequence (O15061 whole entry): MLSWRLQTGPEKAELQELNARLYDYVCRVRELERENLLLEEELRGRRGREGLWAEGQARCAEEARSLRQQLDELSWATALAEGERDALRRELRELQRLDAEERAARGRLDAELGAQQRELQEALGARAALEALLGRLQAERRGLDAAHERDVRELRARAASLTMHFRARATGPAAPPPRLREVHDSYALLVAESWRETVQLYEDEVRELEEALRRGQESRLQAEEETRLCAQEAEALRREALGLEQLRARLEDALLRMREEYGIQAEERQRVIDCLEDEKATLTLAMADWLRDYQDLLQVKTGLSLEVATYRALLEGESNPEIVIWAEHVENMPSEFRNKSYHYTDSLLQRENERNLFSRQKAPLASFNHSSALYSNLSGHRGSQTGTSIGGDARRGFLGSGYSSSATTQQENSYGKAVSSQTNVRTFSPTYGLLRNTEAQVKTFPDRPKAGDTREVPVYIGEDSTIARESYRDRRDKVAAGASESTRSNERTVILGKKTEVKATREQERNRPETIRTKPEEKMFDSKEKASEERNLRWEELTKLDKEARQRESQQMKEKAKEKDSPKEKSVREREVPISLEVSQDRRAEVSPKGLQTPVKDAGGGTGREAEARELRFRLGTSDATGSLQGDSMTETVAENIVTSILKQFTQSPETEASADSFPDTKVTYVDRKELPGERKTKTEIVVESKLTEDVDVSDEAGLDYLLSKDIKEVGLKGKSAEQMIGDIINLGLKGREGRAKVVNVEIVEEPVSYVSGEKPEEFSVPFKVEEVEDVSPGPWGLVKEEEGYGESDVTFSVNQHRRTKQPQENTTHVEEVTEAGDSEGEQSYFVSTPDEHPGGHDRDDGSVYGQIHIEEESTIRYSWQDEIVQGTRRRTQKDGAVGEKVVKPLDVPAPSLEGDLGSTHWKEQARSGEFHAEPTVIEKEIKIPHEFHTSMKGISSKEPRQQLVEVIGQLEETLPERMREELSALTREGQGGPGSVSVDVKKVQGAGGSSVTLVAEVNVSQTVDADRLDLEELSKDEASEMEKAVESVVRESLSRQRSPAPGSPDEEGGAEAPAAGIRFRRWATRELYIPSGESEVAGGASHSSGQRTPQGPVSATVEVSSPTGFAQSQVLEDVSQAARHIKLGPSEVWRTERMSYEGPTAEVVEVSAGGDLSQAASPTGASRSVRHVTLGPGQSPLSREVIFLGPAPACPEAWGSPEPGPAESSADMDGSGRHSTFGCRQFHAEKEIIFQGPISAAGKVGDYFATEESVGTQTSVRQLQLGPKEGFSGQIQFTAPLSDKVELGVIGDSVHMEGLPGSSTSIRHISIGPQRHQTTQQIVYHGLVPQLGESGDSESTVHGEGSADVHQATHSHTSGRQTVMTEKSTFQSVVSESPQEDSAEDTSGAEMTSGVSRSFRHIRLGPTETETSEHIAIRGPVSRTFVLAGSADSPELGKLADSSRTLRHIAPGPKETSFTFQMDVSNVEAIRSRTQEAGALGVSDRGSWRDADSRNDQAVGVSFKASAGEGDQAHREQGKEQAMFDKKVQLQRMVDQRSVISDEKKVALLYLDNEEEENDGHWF

| Binder | co-IP mass spectrometry count (YTHDF2) | co-IP mass spectrometry count (RPL38) | co-IP mass spectrometry count (SYNM) | co-IP/MS count, N-term FLAG (RUVBL2) | co-IP/MS count, N-term FLAG (DDX17) | co-IP/MS count, N-term FLAG (SBSN) | co-IP/MS count, N-term FLAG (PRRC2C) | co-IP/MS count, N-term FLAG (RPS20) | co-IP/MS count, N-term FLAG (SPARC) |
| --- | --- | --- | --- | --- | --- | --- | --- | --- | --- |
| B1 | 5 | 9 | 5 |  |  |  |  |  |  |
| B2 |  |  |  | 0 | 23 | 27 | 6 | 4 | 0 |
